# Measurements published in the supplement of paper PMC12764529.
# ± gives the half width of the 95% confidence interval.
# Assay: folding stability dG unfold from trypsin proteolysis; higher = more stable
# Summary of the method: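 How resistant each design was to proteolysis was captured as K50, inferred by Bayesian fitting of sequencing counts. Unfolding free energy was then derived relative to a sequence-predicted unfolded-state K50 and a shared folded-state K50, per protease or combined. Digestion used trypsin and chymotrypsin at 11 threefold-diluted concentrations plus a no-protease condition, on mini-proteins under 80 residues without cysteine in a PA-tagged cDNA display construct. Designs were kept only when AlphaFold2 dimer inter-PAE was above 15.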
row,Sequence,folding stability dG unfold [kJ/mol]
1,SATREIELPGKKITIHHNPGNNMFRITIYDPKPGKPVEIPIPANNPGMTMENIIDQIREAAKKGRPVRISAG [r14_157_TrROS],3.56 ± 0.151
2,SAGGSAGGSAGGGVEVLSAERRRIPETGLVLVVIREKEPLKPIVVLMPEEDAVVFLKHFSAGGSAGGSAGGS [r10_988_TrMRF],0.587 ± 0.393
3,SAGGSAGGSAGGTPITDEEFRDLPDDVKLVFENGEVAYVPRDPLKVPIGADKTVTAEPVPSAGGSAGGSAGG [r7_643_TrMRF],5.04 ± 0.247
4,SAGGKPKEITLVVKVGETVEFPEGAEVTYDKETGTVTIKLPDGRTIRVEVTYNPDTDYLVVKITVEPSAGGS [r16_122_TrROS_Hall],8.65 ± 0.31
5,SAGGRGVGRPGSRLLLVAEADLEPDEVSVEELAERIREAFPDVRVVDLRVEVGGEKARLFALVELDVSAGGS [r8_202_TrMRF],3.84 ± 0.322
6,SAGLAAAIAAAGAIAEALGVTVRVEVFRDGELVGTFEIPAPVGDGEPVSLEVRLPDPEVTVRFELRIPGSAG [r14_728_TrMRF],9.45 ± 0.586
7,SAGGSAGGSVEDVVKKENVEKAEVKPEPNPPVTLTKITSKNPNSNTTLTGTLVVVDPKNGLLLSAGGSAGGS [r12_133_JUSTAS],-1.44 ± 0.502
8,SAGGSKMEIVKYDKEKNVIYVRVDGKTYTFPLDEITEVTFDEETGELTIKVNGKTYTIKLDLPDLVSAGGSA [r2_48_TrROS_Hall],13.5 ± 0.669
9,SAGGMKIRIPEGQEVKLKKVRFWHNGKPWKIPNMEIKVDRIDPNDNRVQIEIKHPNGRPHTFAFDIKSAGGS [r8_215_TrROS],1.92 ± 0.46
10,SAGGSAGGSKVFTVEELENMTPEEIRALIKKSKKPVIIVAKSEEEKKRAAELLKELGVEVKVLSAGGSAGGS [r12_97_TrROS_Hall],15.6 ± 0.502
11,SAGGMTLTVDEIKELLKKGYSLEEIKEALKKAGFEIVEIKKIEKKDGKIYIEIEFKKNKKIIKIEIPSAGGS [r8_179_TrROS_Hall],14.1 ± 1
12,SAGGSAGGDEVKIEVEVKKVKVKVRVRVKNEDGEEKEVEKEFEVEVVKVKIEFKSPEEAKKLGLSAGGSAGG [r6_149_TrROS_Hall],4.79 ± 0.368
13,SSMSSSPLGSDPATGTTYYLSVSNNSTTLSTVTPAPVLPISPEELEKIAKELAKKNPKLAKKAKELAEKLKS [r1_330_JUSTAS],-1.26 ± 0.837
14,SAGGSAGGSGMSPEALAIKEQVKAEHPDLRVEVKEKILPNGTLEITVTFDDGTTETYTIPIGESAGGSAGGS [r20_210_JUSTAS],12.6 ± 0.544
15,SAGGEKVTVTVTTETKTVTVTVYKAPAPKFKVTEITLELDENGNLRLTIKLENGETLEFDSLEDLLAALSAG [r5_618_TrROS_Hall],11.6 ± 0.331
16,SAGGSAGGSAGGKIIVVKDKETGKYRVIIVDKKTKKTIVVEVDPNTTLEEALKKAKELLKSAGGSAGGSAGG [r7_138_TrROS_Hall],12.8 ± 0.502

row,Sequence,folding stability dG unfold [kJ/mol]
1,SAGGSAGGSAGTLTLRVQLFDEDGRLVAEREVELEVELPPPPPVELEFDEETRELRRRRLSAGGSAGGSAGG [r17_348_TrROS_Hall],4.71 ± 0.753
2,SAGGSAGGSAVVALTPDGALAVWFPEKGVVVVYNPATGTYTVLTVDADNTVTLEDVPPNTDVFSAGGSAGGS [r12_997_TrMRF],6.12 ± 0.134
3,SAGPKIEIHYTPNGIHLTIELPGEWIWMMIPVPPGEKVKIRLPGNGLEITARPYDDYVMIRIRIPDAPSAGG [r19_384_TrROS],15 ± 0.347
4,SAGGSAGGSAGGKIDRIQLHYNPGGNVYFRIYGPNGKPRYFMMPAEDLEDFPNAPIEIYPSAGGSAGGSAGG [r7_238_TrROS],2.71 ± 0.167
5,SAGGSAGGSAGMMVVRAKIKLPNGEVLEIENMSLEEILALAKEKGYEIVDIEVVAPDEEPSAGGSAGGSAGG [r11_283_TrMRF],20 ± 3.22
6,SAGGSAGGSMADITITVTDPATGATRTFPHSVSLEEILAEHPGPVTVTIETPTSTTTLQVPRESAGGSAGGS [r12_1056_JUSTAS],3.7 ± 0.126
7,SAGGSAGGSDMVLVTAPVDIPPNVKVEIKLKDGYETVSYDPESGRLVILVPANKLDEVLEAIKSAGGSAGGS [r12_476_TrMRF],4.17 ± 0.109
8,SAGGSAGGSAGGMILVQDKKTKKWYEIKPGESLENLEFPEGVKEVRIYVFNEDGELVELDSAGGSAGGSAGG [r7_763_TrROS_Hall],5.82 ± 0.18
9,SAGGSMNPSVSVEEEVFPDGVTRLKLTFSDGKELEAEVTRHADGNVQVTLYDKSPGKKTTYTIPLSSAGGSA [r2_99_JUSTAS],2.72 ± 0.502
10,SAGGSAGGSAGRMLVIEIEMPGRKRTFMIPTPDGPPIKAEELADKLGFDNVTVKIHPIDDSAGGSAGGSAGG [r11_219_TrROS],-0.503 ± 2.3
11,SAGGSAGGSAGEKDLPVIEVEFPFPSSFPLPLIKKFAEPFGVKKVEFFEDGTVKVLYVLDSAGGSAGGSAGG [r11_961_TrMRF],1.74 ± 0.418
12,SAGGKLTPEEIEELAKKLAEELRKEGKEVEIEVEIEVDGKLIKIKMKIDPKTKKIEIVKIEVYPKEDLSAGG [r13_37_TrROS_Hall],16.3 ± 0.586
13,SAGGSAGGSAGGKPKKILNIELVLKGKDGKKYKLKIEIYNYPDKPKIYITFPDGTTIEASAGGSAGGSAGGS [r10_404_TrMRF],14.8 ± 0.544
14,SAGGKLTLEEIKALLKEGKEYSLEELLKKIAELLNLTVELEEEPEKVTVVKVDPETGEIVEEKEIDLSAGGS [r8_105_TrROS_Hall],8.43 ± 0.418
15,SAGGVEEIVEKLPEEAEEVEITSEPHPLPGSTLTKYTIKAKNSATGKTKTYEVTVLYDPEGNVLEVLLSAGG [r13_358_JUSTAS],7.1 ± 0.255
16,SAGGSAGGSAMEELVKEAIKEGKPGEVVLIRNEDGSVFALTVKDGKIEIKKLEEVKEVVEESAGGSAGGSAG [r3_244_TrROS_Hall],6.05 ± 0.377
